This is an account of results in paper PMC12256440.

The target in the experiment is MSC membrane glycoproteins (plasminogen membrane receptors) (human (endogenous in MSCs)).

On to Glu-plasminogen (natural protein), for which the Michaelis-Menten constant of plasmin formation on scuPA-treated MSCs, plasminogen 0-2 μM, chromogenic substrate CBS0065 came to 0.5 µM.
